In publication PMC9472474 one finds Kd data, which are given here for one molecule.

The target of the series is T1, GST-RBM45 (6xHis-GST) (human, UniProt Q8IUH3 1-476).
T1 sequence: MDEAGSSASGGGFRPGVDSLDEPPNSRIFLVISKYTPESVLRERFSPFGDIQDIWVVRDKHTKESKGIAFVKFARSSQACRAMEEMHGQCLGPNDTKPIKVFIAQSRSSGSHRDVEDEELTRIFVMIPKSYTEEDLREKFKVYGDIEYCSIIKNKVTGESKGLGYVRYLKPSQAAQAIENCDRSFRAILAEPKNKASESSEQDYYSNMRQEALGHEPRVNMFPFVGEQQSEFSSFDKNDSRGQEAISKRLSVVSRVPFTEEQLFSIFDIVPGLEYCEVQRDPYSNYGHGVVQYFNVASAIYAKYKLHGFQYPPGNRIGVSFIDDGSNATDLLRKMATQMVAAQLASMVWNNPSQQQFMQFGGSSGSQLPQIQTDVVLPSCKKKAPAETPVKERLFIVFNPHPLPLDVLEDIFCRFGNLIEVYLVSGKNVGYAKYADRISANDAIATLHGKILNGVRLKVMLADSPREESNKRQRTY
Briefly: fluorescence polarization.

The Kd is a measure of binding affinity in units of concentration. A high value points to a looser complex.

The molecule UUCUUCUGUGGACUGUG (ssRNA, m6A at A12) [FAM m6A ssRNA] displayed a Kd of 0.462 ± 0.073 µM.
